Like-named read-outs stand apart in the source and are kept apart here.
T1: Sortilin SORTECDBAP_hB12390 (human/tetraodon chimera)
T1 construct: Shuffle construct: chimeric human/tetraodon Sortilin ECD with BAP tag
T1 chain: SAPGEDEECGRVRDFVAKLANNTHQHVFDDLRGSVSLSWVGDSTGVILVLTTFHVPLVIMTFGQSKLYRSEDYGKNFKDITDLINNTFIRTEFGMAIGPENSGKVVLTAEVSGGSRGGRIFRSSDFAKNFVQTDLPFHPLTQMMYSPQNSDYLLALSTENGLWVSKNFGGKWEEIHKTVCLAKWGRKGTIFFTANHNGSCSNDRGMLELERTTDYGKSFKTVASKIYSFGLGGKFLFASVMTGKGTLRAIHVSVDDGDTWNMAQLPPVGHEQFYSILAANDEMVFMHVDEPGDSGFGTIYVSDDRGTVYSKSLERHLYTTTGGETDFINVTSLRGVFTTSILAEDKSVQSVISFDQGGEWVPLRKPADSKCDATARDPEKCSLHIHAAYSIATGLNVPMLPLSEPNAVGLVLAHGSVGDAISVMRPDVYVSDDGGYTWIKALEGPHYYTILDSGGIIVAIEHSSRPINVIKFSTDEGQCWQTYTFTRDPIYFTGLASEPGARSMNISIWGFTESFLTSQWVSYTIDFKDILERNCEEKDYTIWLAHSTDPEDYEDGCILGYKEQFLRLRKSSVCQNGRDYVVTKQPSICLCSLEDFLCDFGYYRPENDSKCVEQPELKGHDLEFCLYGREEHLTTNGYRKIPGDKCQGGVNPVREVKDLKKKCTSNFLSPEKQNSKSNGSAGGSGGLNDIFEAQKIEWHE

T2: Sortilin SORTECDBAP_hB01-05 (human/tetraodon chimera)
T2 construct: Shuffle construct: chimeric human/tetraodon Sortilin ECD with BAP tag
T2 chain: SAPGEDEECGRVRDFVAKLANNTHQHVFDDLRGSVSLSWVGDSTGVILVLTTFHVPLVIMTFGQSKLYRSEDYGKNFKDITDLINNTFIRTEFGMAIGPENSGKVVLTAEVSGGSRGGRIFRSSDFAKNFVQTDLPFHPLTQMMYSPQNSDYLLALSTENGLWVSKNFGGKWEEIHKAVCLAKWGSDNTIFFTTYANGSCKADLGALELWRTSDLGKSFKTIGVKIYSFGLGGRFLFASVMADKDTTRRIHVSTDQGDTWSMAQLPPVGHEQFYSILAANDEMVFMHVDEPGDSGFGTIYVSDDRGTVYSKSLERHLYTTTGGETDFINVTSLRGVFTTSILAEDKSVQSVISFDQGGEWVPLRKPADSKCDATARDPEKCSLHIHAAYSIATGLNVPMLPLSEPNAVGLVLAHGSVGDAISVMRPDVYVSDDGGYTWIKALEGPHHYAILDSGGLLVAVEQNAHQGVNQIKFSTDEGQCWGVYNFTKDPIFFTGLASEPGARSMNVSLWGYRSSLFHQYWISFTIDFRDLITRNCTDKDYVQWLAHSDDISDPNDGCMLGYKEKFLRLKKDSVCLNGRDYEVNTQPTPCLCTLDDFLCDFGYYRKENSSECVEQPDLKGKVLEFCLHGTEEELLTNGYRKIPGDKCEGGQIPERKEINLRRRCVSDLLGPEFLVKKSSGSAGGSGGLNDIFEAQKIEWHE

T3: Sortilin SORTECDBAP_tetra (tetraodon)
T3 construct: Fully tetraodon Sortilin ECD with BAP tag; also called tetraodon; tetraodon Sortilin
T3 chain: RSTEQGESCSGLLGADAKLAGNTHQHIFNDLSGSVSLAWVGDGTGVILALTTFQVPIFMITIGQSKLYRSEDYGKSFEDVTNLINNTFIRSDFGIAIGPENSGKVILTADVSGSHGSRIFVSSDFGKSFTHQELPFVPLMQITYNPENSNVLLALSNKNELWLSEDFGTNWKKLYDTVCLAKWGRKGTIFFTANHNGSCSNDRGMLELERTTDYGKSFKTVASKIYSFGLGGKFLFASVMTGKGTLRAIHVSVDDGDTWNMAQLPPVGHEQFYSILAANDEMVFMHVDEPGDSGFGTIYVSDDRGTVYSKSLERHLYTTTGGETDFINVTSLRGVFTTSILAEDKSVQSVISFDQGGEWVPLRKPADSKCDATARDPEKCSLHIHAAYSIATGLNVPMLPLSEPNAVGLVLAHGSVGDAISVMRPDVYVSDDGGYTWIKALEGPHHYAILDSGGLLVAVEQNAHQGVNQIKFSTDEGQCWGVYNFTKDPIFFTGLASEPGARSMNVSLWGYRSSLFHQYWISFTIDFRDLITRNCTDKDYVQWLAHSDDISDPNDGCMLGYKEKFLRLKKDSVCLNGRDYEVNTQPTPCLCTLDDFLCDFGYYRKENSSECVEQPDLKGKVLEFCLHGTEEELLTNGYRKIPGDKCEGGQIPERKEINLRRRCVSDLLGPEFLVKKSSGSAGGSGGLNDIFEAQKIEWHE

T4: hBack
T4 chimeric human/tetraodon Sortilin extracellular region, BAP tag: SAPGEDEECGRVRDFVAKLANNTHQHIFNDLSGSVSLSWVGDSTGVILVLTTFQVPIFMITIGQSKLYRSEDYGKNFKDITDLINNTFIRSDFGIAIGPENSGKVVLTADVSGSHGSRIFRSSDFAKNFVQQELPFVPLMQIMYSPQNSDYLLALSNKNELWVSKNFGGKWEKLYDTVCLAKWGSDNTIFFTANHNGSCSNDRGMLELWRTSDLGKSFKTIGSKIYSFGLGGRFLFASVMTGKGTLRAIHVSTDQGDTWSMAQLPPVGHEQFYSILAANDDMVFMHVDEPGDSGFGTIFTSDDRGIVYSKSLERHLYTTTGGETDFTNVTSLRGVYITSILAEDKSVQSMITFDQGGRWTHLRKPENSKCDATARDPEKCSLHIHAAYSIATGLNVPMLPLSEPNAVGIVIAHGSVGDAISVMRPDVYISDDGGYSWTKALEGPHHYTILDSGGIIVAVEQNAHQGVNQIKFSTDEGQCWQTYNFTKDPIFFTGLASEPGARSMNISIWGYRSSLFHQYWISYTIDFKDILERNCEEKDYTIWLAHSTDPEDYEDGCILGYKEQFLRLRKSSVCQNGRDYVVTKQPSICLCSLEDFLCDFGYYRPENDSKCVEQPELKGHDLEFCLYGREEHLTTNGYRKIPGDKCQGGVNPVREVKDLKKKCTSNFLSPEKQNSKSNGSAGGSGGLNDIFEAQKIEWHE


What was measured:
Assay in all cases: BLI (Octet384RED)
[1] = biological target: T1, Sortilin SORTECDBAP_hB12390
[2] = biological target: T2, Sortilin SORTECDBAP_hB01-05
[3] = biological target: T3, Sortilin SORTECDBAP_tetra
[4] = biological target: T4, hBack
[5] = biological target: T1, Sortilin SORTECDBAP_hB12390
[6] = biological target: T2, Sortilin SORTECDBAP_hB01-05
[7] = biological target: T3, Sortilin SORTECDBAP_tetra
[8] = biological target: T4, hBack

EC50 [1] [ng/mL]	binding result [2]	binding result [3]	EC50 [4] [ng/mL]	EC50 [5] [ng/mL]	binding result [6]	binding result [7]	EC50 [8] [ng/mL]	Binder
11.4	no binding	no binding	2.62	–	–	–	–	Antibody 6003-936 (antibody, human IgG1, V domains shown) VH: EVQLVQSGAEVKKPGESLKISCKGSGYIFTSFWIGWVRQMPGKGLEWMGIIYPGDSDTRYSPSFQGQVTISADKSISTAYLQWSSLKASDTAMYYCARHSRGSFWYGAFQHWGQGTLVTVSS VL: EIVLTQSPDFQSVTPKEKVTITCRASQSIGSSLHWYQQKPDQSPKLLIKYASQSFSGVPSRFSGSGSGTDFTLTINSLEAEDAAAYYCHQSSSLPHTFGPGTKVDIK
–	–	–	–	3.55	no binding	no binding	4	Antibody 6003-423 (antibody, human IgG1, V domains shown) VH: EVQLLESGGGLVQPGGSLRLSCEASGFTFRSYVMSWVRQAPGKGLEWVSTISGGGGNTNYTDSVKGRFTISRDNSKNTLYLQMNSLRAEDTAVYYCAKNWGSGFDYWGQGTLVTVSS VL: EIVLTQSPATLSLSPGERATLSCRASQSVSSYLAWYQQKPGQAPRLLIYDASNRATGIPARFSGSGSGTDFTLTISSLEPEDFAVYYCQQRSNWLIFTFGPGTKVDIK
–	–	–	–	3.16	no binding	no binding	2.54	Antibody 6003-471 (antibody, V domains shown) VH: QVQLVQSGAEVKKPGSSVKVSCKASGGTFSNYAISWVRQAPGQGLEWMGRIIPIFGIANYAQKFQGRVTITADKSTSTAYMELSSLRSEDTAVYYCARDRRGFSGYEVFDYWGQGTLVTVSS VL: DIQMTQSPSSLSASVGDRVTITCRASQGISSWLAWYQQKPEKAPKSLIYATSSLQSGVPSRFSGSGSGTDFTLTISSLQPEDFATYYCQQYNSYPITFGQGTRLEIK

From patent US20210292414A1 (H LUNDBECK A S, published 2021)
